Test results from the supplement of paper PMC5998384.

Key:
[1] = test system: HeLa Kyoto; experiment: thermal stability score vs G1/S (z-score of summed log2 fold changes over temperatures); higher = more thermally stable than in G1/S
[2] = test system: HeLa Kyoto; experiment: melting temperature (median over replicates), in situ; higher = more thermally stable
[3] = test system: HeLa Kyoto; experiment: solubility change mitosis vs G1/S (difference of NP-40 vs SDS log2 ratios) (log2 ratio difference); higher = more soluble in mitosis
[4] = test system: HeLa Kyoto; experiment: solubility in G1/S (NP-40 vs SDS abundance) (log2 ratio); higher = more soluble; conditions: cell cycle stage: G1/S
[5] = cell cycle stage: early G1 (4.5 h after nocodazole release)
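Throughout, for melting temperature (median over replicates), in situ: HeLa Kyoto cells synchronized by double thymidine or nocodazole block, proteins quantified by TMT10plex mass spectrometry, three independent biological replicates.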
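Throughout, for solubility change mitosis vs G1/S (difference of NP-40 vs SDS log2 ratios): synchronized HeLa Kyoto cells (double thymidine block for G1/S, nocodazole release for mitosis), protein amounts in NP-40 versus SDS lysates quantified by mass spectrometry, three biological replicates.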
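Throughout, for solubility in G1/S (NP-40 vs SDS abundance): HeLa Kyoto cells arrested at G1/S by double thymidine block, proteins quantified by TMT10plex mass spectrometry in mild NP-40 versus SDS extracts, three biological replicates.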
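Throughout, for thermal stability score vs G1/S (z-score of summed log2 fold changes over temperatures): synchronized HeLa Kyoto cells, proteins quantified by TMT10plex mass spectrometry, three biological replicates, mitosis taken 0.5 h after nocodazole release, G1/S directly after double thymidine block.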

Sequence | thermal stability score [1, 5] | thermal stability score ([1]; cell cycle stage: mitosis) | melting temperature ([2]; cell cycle stage: G1/S) [°C] | melting temperature ([2]; cell cycle stage: mitosis) [°C] | solubility change mitosis (log2) [3] | solubility in G1/S (log2) [4]
MSGFDDPGIFYSDSFGGDAQADEGQARKSQLQRRFKEFLRQYRVGTDRTGFTFKYRDELKRHYNLGEYWIEVEMEDLASFDEDLADYLYKQPAEHLQLLEEAAKEVADEVTRPRPSGEEVLQDIQVMLKSDASPSSIRSLKSDMMSHLVKIPGIIIAASAVRAKATRISIQCRSCRNTLTNIAMRPGLEGYALPRKCNTDQAGRPKCPLDPYFIMPDKCKCVDFQTLKLQELPDAVPHGEMPRHMQLYCDRYLCDKVVPGNRVTIMGIYSIKKFGLTTSRGRDRVGVGIRSSYIRVLGIQVDTDGSGRSFAGAVSPQEEEEFRRLAALPNVYEVISKSIAPSIFGGTDMKKAIACLLFGGSRKRLPDGLTRRGDINLLMLGDPGTAKSQLLKFVEKCSPIGVYTSGKGSSAAGLTASVMRDPSSRNFIMEGGAMVLADGGVVCIDEFDKMREDDRVAIHEAMEQQTISIAKAGITTTLNSRCSVLAAANSVFGRWDETKGEDNIDFMPTILSRFDMIFIVKDEHNEERDVMLAKHVITLHVSALTQTQAVEGEIDLAKLKKFIAYCRVKCGPRLSAEAAEKLKNRYIIMRSGARQHERDSDRRSSIPITVRQLEAIVRIAEALSKMKLQPFATEADVEEALRLFQVSTLDAALSGTLSGVEGFTSQEDQEMLSRIEKQLKRRFAIGSQVSEHSIIKDFTKQKYPEHAIHKVLQLMLRRGEIQHRMQRKVLYRLK [MCM5] | 1.16 | 0.714 | 51.9 | 51.4 | -0.0997 | -0.322
MAASCVLLHTGQKMPLIGLGTWKSEPGQVKAAVKYALSVGYRHIDCAAIYGNEPEIGEALKEDVGPGKAVPREELFVTSKLWNTKHHPEDVEPALRKTLADLQLEYLDLYLMHWPYAFERGDNPFPKNADGTICYDSTHYKETWKALEALVAKGLVQALGLSNFNSRQIDDILSVASVRPAVLQVECHPYLAQNELIAHCQARGLEVTAYSPLGSSDRAWRDPDEPVLLEEPVVLALAEKYGRSPAQILLRWQVQRKVICIPKSITPSRILQNIKVFDFTFSPEEMKQLNALNKNWRYIVPMLTVDGKRVPRDAGHPLYPFNDPY [AKR1A1] | -0.223 | -1.09 | 52.1 | 52.7 | -0.00767 | 0.534
MVKQIESKTAFQEALDAAGDKLVVVDFSATWCGPCKMIKPFFHSLSEKYSNVIFLEVDVDDCQDVASECEVKCMPTFQFFKKGQKVGEFSGANKEKLEATINELV [TXN] | -0.802 | -2.72 | 57.3 | 58.1 | -0.04 | 0.255
MSEDLAKQLASYKAQLQQVEAALSGNGENEDLLKLKKDLQEVIELTKDLLSTQPSETLASSDSFASTQPTHSWKVGDKCMAVWSEDGQCYEAEIEEIDEENGTAAITFAGYGNAEVTPLLNLKPVEEGRKAKEDSGNKPMSKKEMIAQQREYKKKKALKKAQRIKELEQEREDQKVKWQQFNNRAYSKNKKGQVKRSIFASPESVTGKVGVGTCGIADKPMTQYQDTSKYNVRHLMPQ [SMNDC1] | -2.66 | -6.93 | 57.7 | 55.9 | 0.405 | 0.271
MLDSLLALGGLVLLRDSVEWEGRSLLKALVKKSALCGEQVHILGCEVSEEEFREGFDSDINNRLVYHDFFRDPLNWSKTEEAFPGGPLGALRAMCKRTDPVPVTIALDSLSWLLLRLPCTTLCQVLHAVSHQDSCPGDSSSVGKVSVLGLLHEELHGPGPVGALSSLAQTEVTLGGTMGQASAHILCRRPRQRPTDQTQWFSILPDFSLDLQEGPSVESQPYSDPHIPPVDPTTHLTFNLHLSKKEREARDSLILPFQFSSEKQQALLRPRPGQATSHIFYEPDAYDDLDQEDPDDDLDI [ELP5] | -2.95 | -4.18 | 54.9 | 53.9 | -0.11 | 0.313
MLSRVVLSAAATAAPSLKNAAFLGPGVLQATRTFHTGQPHLVPVPPLPEYGGKVRYGLIPEEFFQFLYPKTGVTGPYVLGTGLILYALSKEIYVISAETFTALSVLGVMVYGIKKYGPFVADFADKLNEQKLAQLEEAKQASIQHIQNAIDTEKSQQALVQKRHYLFDVQRNNIAMALEVTYRERLYRVYKEVKNRLDYHISVQNMMRRKEQEHMINWVEKHVVQSISTQQEKETIAKCIADLKLLAKKAQAQPVM [ATP5F1] | -0.0719 | -1.2 | 52.8 | 53.8 | 0.116 | 0.102
MATSMAAASGRFESAKSIEERKEQTRNARAEVLRQAKANFEKEERRKELKRLRGEDTWMLPDVNERIEQFSQEHSVKKKKKKDKHSKKAKKEKKKKSKKQKYEKNNESSDSSSSSEDEWVEAVPSQTPDKEKAWKVKDEKSGKDDTQIIKRDEWMTVDFMSVKTVSSSSLKAEKETMRKIEQEKNQALEQSKLMERELNPYWKDGGTGLPPEDCSVSSITKVSVVEDGGLSWLRKSYLRMKEQAEKQSRNFEDIVAERYGSMEIFQSKLEDAEKAASTKEDYRRERWRKPTYSDKAQNCQESRESDLVKYGNSSRDRYATTDTAKNSNNEKFIGDEKDKRPGSLETCRRESNPRQNQEFSFGNLRAKFLRPSDDEELSFHSKGRKFEPLSSSSALVAQGSLCSGFRKPTKNSEERLTSWSRSDGRGDKKHSNQKPSETSTDEHQHVPEDPREKSQDEVLRDDPPKKEHLRDTKSTFAGSPERESIHILSVDEKNKLGAKIIKAEMMGNMELAEQLKVQLEKANKFKETITQIPKKSGVENEDQQEVILVRTDQSGRVWPVNTPGKSLESQGGRRKRQMVSTHEERERVRYFHDDDNLSLNDLVKNEKMGTAENQNKLFMRMASKFMGKTDGDYYTLDDMFVSKAAERERLGEEEENQRKKAIAEHRSLAAQMEKCLYCFDSSQFPKHLIVAIGVKVYLCLPNVRSLTEGHCLIVPLQHHRAATLLDEDIWEEIQMFRKSLVKMFEDKGLDCIFLETNMSMKKQYHMVYECIPLPKEVGDMAPIYFKKAIMESDEEWSMNKKLIDLSSKDIRKSVPRGLPYFSVDFGLHGGFAHVIEDQHKFPHYFGKEIIGGMLDIEPRLWRKGIRESFEDQRKKALQFAQWWKPYDFTKSKNY [CWF19L2] | 0.398 | 2.26 | 49.4 | 49.2 | 0.121 | -0.379
MGCSAKARWAAGALGVAGLLCAVLGAVMIVMVPSLIKQQVLKNVRIDPSSLSFNMWKEIPIPFYLSVYFFDVMNPSEILKGEKPQVRERGPYVYREFRHKSNITFNNNDTVSFLEYRTFQFQPSKSHGSESDYIVMPNILVLGAAVMMENKPMTLKLIMTLAFTTLGERAFMNRTVGEIMWGYKDPLVNLINKYFPGMFPFKDKFGLFAELNNSDSGLFTVFTGVQNISRIHLVDKWNGLSKVDFWHSDQCNMINGTSGQMWPPFMTPESSLEFYSPEACRSMKLMYKESGVFEGIPTYRFVAPKTLFANGSIYPPNEGFCPCLESGIQNVSTCRFSAPLFLSHPHFLNADPVLAEAVTGLHPNQEAHSLFLDIHPVTGIPMNCSVKLQLSLYMKSVAGIGQTGKIEPVVLPLLWFAESGAMEGETLHTFYTQLVLMPKVMHYAQYVLLALGCVLLLVPVICQIRSQVGAGQRAARADSHSLACWGKGASDRTLWPTAAWSPPPAAVLRLCRSGSGHCWGLRSTLASFACRVATTLPVLEGLGPSLGGGTGS [SCARB1] | -1.41 | -1.54 | 56.6 | 63.1 | -0.0198 | 0.27
MADSELQLVEQRIRSFPDFPTPGVVFRDISPVLKDPASFRAAIGLLARHLKATHGGRIDYIAGLDSRGFLFGPSLAQELGLGCVLIRKRGKLPGPTLWASYSLEYGKAELEIQKDALEPGQRVVVVDDLLATGGTMNAACELLGRLQAEVLECVSLVELTSLKGREKLAPVPFFSLLQYE [APRT] | 3.79 | 2.38 | 57.1 | 55.8 | -0.0341 | 0.361
MALRGVSVRLLSRGPGLHVLRTWVSSAAQTEKGGRTQSQLAKSSRPEFDWQDPLVLEEQLTTDEILIRDTFRTYCQERLMPRILLANRNEVFHREIISEMGELGVLGPTIKGYGCAGVSSVAYGLLARELERVDSGYRSAMSVQSSLVMHPIYAYGSEEQRQKYLPQLAKGELLGCFGLTEPNSGSDPSSMETRAHYNSSNKSYTLNGTKTWITNSPMADLFVVWARCEDGCIRGFLLEKGMRGLSAPRIQGKFSLRASATGMIIMDGVEVPEENVLPGASSLGGPFGCLNNARYGIAWGVLGASEFCLHTARQYALDRMQFGVPLARNQLIQKKLADMLTEITLGLHACLQLGRLKDQDKAAPEMVSLLKRNNCGKALDIARQARDMLGGNGISDEYHVIRHAMNLEAVNTYEGTHDIHALILGRAITGIQAFTASK [GCDH] | -0.63 | 1.21 | 54.2 | 54.7 | -0.103 | 0.217
